Assay results published in patent US20060140946A1.

Molecular target: human tumor necrosis factor-alpha (hTNFα) (human) (UniProt P01375)
Assay: cell-based or functional assay

human tumor necrosis factor-alpha (hTNFα) (human), sequence (P01375 77-233): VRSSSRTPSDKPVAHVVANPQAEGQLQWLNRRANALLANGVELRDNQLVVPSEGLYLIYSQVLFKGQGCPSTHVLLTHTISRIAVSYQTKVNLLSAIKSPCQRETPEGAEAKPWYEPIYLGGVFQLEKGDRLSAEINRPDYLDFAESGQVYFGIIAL

B1: chimeric mouse/human IgG1 anti-platelet mAb (7E3) (antibody, INN chains, looked up, V domains shown)
VH: EVQLQQSGTVLARPGASVKMSCEASGYTFTNYWMHWVKQRPGQGLEWIGAIYPGNSDTSYIQKFKGKAKLTAVTSTTSVYMELSSLTNEDSAVYYCTLYDGYYVFAYWGQGTLVTVSA
VL: EIVLTQSPVTLSVTPGDSVSLSCRASRDISNNLHWFQQTSHESPRLLIKYASQSMSGIPSRFSGSGSGTDFTLSINSVETEDFGMYFCQQTNSWPYTFGGGTKLEIK
modifications: IgG1
IL-6 secreted by FS-4 fibroblasts; 4 µg/ml antibody, rhTNF 0.3 ng/ml: 1.6 ng/mL | IL-6 secreted by FS-4 fibroblasts; 4 µg/ml antibody, rhTNF 1.5 ng/ml: 1.96 ng/mL | IL-6 secreted by FS-4 fibroblasts; 4 µg/ml antibody, rhTNF 7.5 ng/ml: 2.16 ng/mL
